We go through six molecules from PMC3601014, “Blood-brain barrier transport of amyloid beta peptides in efflux pump knock-out animals evaluated by in vivo optical imaging” (Fluids and Barriers of the CNS, 2013).

Some results are limits rather than exact numbers.

One series deals with Abcb1 and Abcg2. More on the design: method as in PMID 22391220. To be noted: in situ brain perfusion, Abcb1-deficient mice; cited from earlier work.
Series [1] can be described thus: Western blot analysis of Aβ peptide solution (monomers/dimers). To be noted: dissolved in 10 mM NaOH, HEPES to pH 8.0, data not shown. The class given is physicochemical. The protocol:
Aβ1-40 peptide used in this study for optical imaging/tracking is the most abundant Aβ peptide found in the cerebral vasculature and is more soluble than Aβ1-42 peptide. Aβ1-40 peptides (1 mg/vial) were dissolved in 250 μL of 10 mM NaOH, and then 12.5 μL of 1 M HEPES [4-(2-hydroxyethyl)-1-piperazineethanesulfonic acid] was added to bring the pH to 8.0. The peptides were divided into 2 tubes (0.5 mg/tube) and kept at −80°C. Because Aβ peptides are commonly present as beta sheet structure in solution, Western blot analyses of the mixtures were performed, and the majority of the peptides (>95%) were monomers with a small proportion of dimers (data not shown). Aβ1-40 or scrambled Aβ40-1 peptides (0.5 mg, molecular weight 4329.86D) were labeled with the near-infrared fluorescent dye Cy5.5 (molecular weight 1128.42D) using the labeling kit (Cy5.5™ Mono NHS ester) as per manufacturer’s instructions.
For orientation: A western blot detects proteins with antibodies after separation by electrophoresis.

Series [2] has as its system mdr-1 P-glycoprotein/Abcb1. In words: Time-domain in vivo optical imaging of head ROI, Abcb1-KO mice. The arrangement: species or system mouse. As to conditions: i.v. injection, imaged 2–8 h, data not shown. The source says: (§1) The experiments with animals have been approved by the Animal Care Committee of the National Research Council of Canada - Ottawa (NRC). Wild-type (wt), mdr-1a/b (Abcb1a/b) knockout (Abcb1^KO), and Abcg2^-KO mice of FVB background were purchased from the Taconic Farms Inc (New York, USA) and maintained in the NRC Animal Facility at Ottawa. Pairs of adult wild-type mice and Abcb1^-KO and pairs of adult wild-type and Abcg2^-KO mice of the same body weight and same sex were matched for injections and imaging experiments. After initial testing of fluorescence signal with various injected doses of Cy5.5-labeld Aβ peptides, the optimal dose selected for the experiments was 100 μg of labelled peptide in 200-μL volume. […]
(§2) Briefly, each animal was positioned on a platform (dorsal side facing up) that was then placed on a heated plate (at 36°C) in the imaging system. […] The fluorescence emission at 700 nm was collected by a highly sensitive photomultiplier tube offset by 3 mm for diffuse optical topography reconstruction. […] A pulsed light source and time-resolved detection allows the system to resolve the nanosecond timescale of fluorescence emission. […] The data were thus recorded as TPSF and the images were reconstructed as fluorescence concentration maps. […] Brains were then extracted and scanned ex-vivo for fluorescence concentration

The conditions of series [3]: no reference given; cited from earlier work. From the text:
To enable prospective in vivo optical imaging of the distribution of peripherally-injected Aβ peptides, the peptides were labeled with the near-infrared fluorescent dye Cy5.5. Since the principal aim of the present study was to monitor brain distribution of Cy5.5-labeled Aβ peptide in mice lacking major ABC transporters, the fluorescent tracer itself should not be the substrate for these transporters. To compare the permeability of BBB for Cy5.5 in wild-type, Abcb1^-KO and Abcg2^-KO animals, equal amounts of Cy5.5 tracer were intravenously injected into two pairs of wild-type and knockout mice ...

Series [4] is described as follows: Time-domain in vivo optical imaging of head ROI, wild-type mice. To be noted: i.v. injection, imaged 2–8 h; wild-type and KO mice. The arrangement: species or system mouse.
Excerpt: as §1, §2

A further series addresses T1, Abcg2 (Mus musculus, UniProt Q7TMS5).
T1 construct: five pairs of adult wild-type and Abcg2^-KO mice were intravenously injected via the tail vein; tissue Taconic Farms Inc; host or cells: living FVB mice (head ROI / brain, blood-brain barrier)
T1 sequence (Q7TMS5 1-657): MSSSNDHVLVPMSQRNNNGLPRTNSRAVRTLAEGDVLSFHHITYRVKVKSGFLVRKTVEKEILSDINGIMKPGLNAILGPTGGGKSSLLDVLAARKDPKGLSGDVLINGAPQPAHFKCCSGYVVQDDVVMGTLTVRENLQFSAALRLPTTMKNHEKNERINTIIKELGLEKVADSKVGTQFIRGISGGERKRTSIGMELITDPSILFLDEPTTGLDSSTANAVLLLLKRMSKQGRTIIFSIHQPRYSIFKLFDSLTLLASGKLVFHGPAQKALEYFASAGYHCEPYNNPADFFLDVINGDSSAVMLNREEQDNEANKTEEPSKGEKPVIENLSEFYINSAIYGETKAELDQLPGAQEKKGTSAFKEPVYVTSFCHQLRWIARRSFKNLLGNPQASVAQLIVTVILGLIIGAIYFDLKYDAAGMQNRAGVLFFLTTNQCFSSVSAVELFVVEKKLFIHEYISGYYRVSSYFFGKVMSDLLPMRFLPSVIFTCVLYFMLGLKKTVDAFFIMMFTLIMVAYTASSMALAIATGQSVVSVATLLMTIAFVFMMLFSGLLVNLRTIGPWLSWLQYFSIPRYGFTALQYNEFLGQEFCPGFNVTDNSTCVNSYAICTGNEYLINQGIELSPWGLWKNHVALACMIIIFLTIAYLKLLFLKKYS
In words: Time-domain in vivo optical imaging of head ROI, Abcg2-KO mice. As to conditions: i.v. injection, imaged 2–8 h, 4 animals per group.
Excerpt: as §1, §2

Series [5] is described as follows: Aβ immunohistochemistry in brain sections (6E10 antibody). The class given is in vivo, mouse. To be noted: 100 μg i.v., brains collected 8 h post-injection; wild-type and Abcg2-KO mice; 3 animals per group. From the text:
The sections were also counter-stained with fluorescein-labeled lectin, Ulex europeaus agglutinin (UEA-I), as described to visualize cerebral vessels.

The nature of series [6]: Serial whole-body imaging (biodistribution and systemic elimination). In kind it is in vivo, mouse. As to conditions: 100 μg i.v.; wild-type, Abcg2-KO and Abcb1-KO mice. The protocol: The animals were anesthetized with inhaled isoflurane (4% for induction and 1.5% for maintenance) and the fur was shaved from the head and dorsal side of the body. The labeled peptides (100 μg) or Cy5.5 free dye (~78 μg) were injected intravenously (i.v.) via the tail vein. The animals were imaged at 2, 4, 6, and 8 h post-injection using the time-domain optical imager eXplore Optix 670 (GE Healthcare Systems/ART Inc). The imaging protocols were described in detail previously.
Briefly, each animal was positioned on a platform (dorsal side facing up) that was then placed on a heated plate (at 36°C) in the imaging system. The whole-body scan or selected region of interest (ROI) scan (i.e., head) was performed as described. […] The fluorescence emission at 700 nm was collected by a highly sensitive photomultiplier tube offset by 3 mm for diffuse optical topography reconstruction. […] A pulsed light source and time-resolved detection allows the system to resolve the nanosecond timescale of fluorescence emission. […] The data were thus recorded as TPSF and the images were reconstructed as fluorescence concentration maps. Average fluorescence concentration data from ROI placed around the heads were subsequently analyzed using the software ART Optix Optiview (ART Inc., Montreal, QC, Canada). […] Brains were then extracted and scanned ex-vivo for fluorescence concentration […]

Series [7] in a line: Aβ-Cy5.5 conjugate stability in serum. The class given is in vitro ADME, bovine. As to conditions: 1:8 v/v, ~1 μg Aβ, 37°C, 0–8 h, Tricine-SDS-PAGE, optical imaging and 6E10 immunoblot. The protocol: To evaluate Aβ-Cy5.5 conjugate stability in serum, the labeled peptide (5-μL volume containing ~1 μg Aβ) was added to either 35 μL of (non-inactivated) FBS or 35 μL of 1 × PBS (1: 8 dilution) and incubated at 37°C for 0, 0.5, 1, 2, 4, 6, and 8 hours, respectively. The peptides (4 μL) from each of the above reactions (40 μL/reaction) were added to the loading buffer, boiled for 10 min, and resolved on a 16% Tricine-SDS-PAGE as described. The tricine-SDS-PAGE gel was scanned in the optical imager; the peptides in the gel were then transferred to a PVDF membrane for immuno-blotting. A mouse monoclonal anti-human Aβ antibody 6E10 (1:1000 dilution) and the secondary HRP-conjugated donkey anti-mouse IgG antibody (1:5000 dilution) were used for immunodetection. ECL plus detection reagents were applied to the blots and the blots were exposed to autoradiography films.

For series [8] the following is noted: in vivo, cited from earlier work. The protocol: Head ROI imaging protocols were initiated 2 hours after tracer injection, allowing 3–4 circulation half-lives; therefore, measured head fluorescence concentration was primarily indicative of the brain-accumulated/retained tracer, with small contribution of circulating tracer.

As to `COc1cc2c(cc1OC)CN(CCc1ccc(NC(=O)c3cccc4c(=O)c5cccc(OC)c5[nH]c34)cc1)CC2` [GF120918], the “Effect on brain uptake of [3H]-Aβ1-40” value with Abcb1 and Abcg2 is “strongly enhanced”.

As to “Aβ1-40: Synthetic human Aβ1-40 peptide purchased from Biopeptides Co.”, in series [1], the “Proportion of peptide present as monomers” value is recorded as above 95%.

In the case of Cy5.5, the “Head ROI fluorescence, wild-type versus Abcb1-KO” value in [2] was “not different”. Further, in [3], the Plasma half-life entry is “about 30 min” and the “Time in which majority of the dye is cleared from the body” value is 2 h. Moreover, the “Fluorescence in the head ROI after circulation time” value in [4] is “close to background”. In addition, the “Head ROI fluorescence, wild-type versus Abcg2-KO” value on Abcg2 was “not different”.

For the molecule “Cy5.5-labeled Aβ1-40: Synthetic human Aβ1-40 peptide labeled with the near-infrared fluorescent dye Cy5.5 (Mono NHS ester)”, in series [5], the “Immunoreactive Aβ in brain sections” value is “detected”. The “Whole-body elimination of fluorescence” value in series [6] is “almost complete disappearance of fluorescence from the body between 2 h and 4 h after injection”. Also, in series [7] (1 × PBS), the “Stability of conjugate in PBS” value is listed as “no appreciable reductions of intact Aβ peptide bands”. The “Stability of conjugate in serum ex vivo” value in [7] (non-inactivated FBS) was “mostly intact in the serum ex vivo up to 8 hours”.

On to “[^123I]-Aβ1-40: intracerebrally microinfused 123I-labeled Aβ1-40, literature SPECT study”, for which, in series [8] (monkey), the “Brain clearance short t1/2 (bi-phasic)” value was 1.1 ~ 2.7 hours.

As for “[^125I]-Aβ1-40: brain-injected 125I-labeled Aβ1-40 peptide, literature”, the “Brain clearance t1/2” value in series [8] was 25 min.
